Residue numbers refer to the chain shown, from its start.
T1: human NRP2 variant 2 (hNRP2), untagged, on Expi293 cells (Human, UniProt O60462 23-931)
T1 construct: Transcript NM_003872 / NP_003863.2; also called Expi293-hNRP2 clonal cells; Human NRP2a (version 2)
T1 sequence: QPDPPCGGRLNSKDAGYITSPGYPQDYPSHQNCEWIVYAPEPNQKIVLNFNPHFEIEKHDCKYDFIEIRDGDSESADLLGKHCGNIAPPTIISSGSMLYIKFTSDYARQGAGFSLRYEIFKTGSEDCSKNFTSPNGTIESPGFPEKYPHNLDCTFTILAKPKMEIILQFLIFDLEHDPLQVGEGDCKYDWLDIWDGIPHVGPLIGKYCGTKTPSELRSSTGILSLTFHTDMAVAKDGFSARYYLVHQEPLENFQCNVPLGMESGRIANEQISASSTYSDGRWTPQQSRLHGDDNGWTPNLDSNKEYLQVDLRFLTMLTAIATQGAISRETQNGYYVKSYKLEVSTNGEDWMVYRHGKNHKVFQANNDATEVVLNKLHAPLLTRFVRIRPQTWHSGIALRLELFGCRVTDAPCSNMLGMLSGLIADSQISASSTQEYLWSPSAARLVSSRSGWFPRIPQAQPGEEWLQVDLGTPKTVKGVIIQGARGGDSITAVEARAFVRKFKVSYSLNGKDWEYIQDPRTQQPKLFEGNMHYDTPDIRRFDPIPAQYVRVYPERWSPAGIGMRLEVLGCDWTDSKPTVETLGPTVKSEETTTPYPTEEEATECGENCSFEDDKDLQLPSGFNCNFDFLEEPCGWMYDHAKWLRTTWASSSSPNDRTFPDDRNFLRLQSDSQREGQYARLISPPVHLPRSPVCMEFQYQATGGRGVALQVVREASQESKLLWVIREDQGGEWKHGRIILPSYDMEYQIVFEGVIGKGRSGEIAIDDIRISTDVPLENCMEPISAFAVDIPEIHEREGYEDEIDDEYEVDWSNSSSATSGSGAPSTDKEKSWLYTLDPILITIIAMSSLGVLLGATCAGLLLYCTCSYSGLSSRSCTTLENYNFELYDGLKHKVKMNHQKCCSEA

B1: aNRP2-28v2/4 (antibody, V domains shown)
VH: QSVKESEGGLFKPTDTLTLTCTVSGFSLSTYSISWVRQAPGNGLEWIGIIGDAGGIIYATWAKSRSTITRSTALNTVTLKMTGLTAADTATYFCARDGTAFDIWGPGTLVTVSS
VL: AYDMTQTPASVEVVVGGTVTIKCQASQSIYSKLGWYQQKPGQPPKLLIYRASTLASGVSSRFKGSGSGTEYTLTISGVQCDDAATYYCQQDYSYINVDNIFGGGTEVVVK
notes: Mouse surrogate antibody; also called aNRP2-28v4
B2: aNRP2-11v7 (antibody, V domains shown)
VH: QVQLVQSGAEVKKPGASVKVSCKASGYTFTSFGISWVRQAPGQGLEWIGEIYPRSGNTYYNENFKGRATMTADKSTSTAYMELRSLRSDDTAVYYCARSSGYYGSTPFPYWGQGTLVTVSS
VL: DIQMTQSPSSLSASVGDRVTITCRASQDISNYLNWYQQKPGKAVKLLIYYTSRLHSGVPSRFSGSGSGTDYTFTISSLQPEDIATYYCQQGNTLPWTFGGGTKVEIK
notes: also called aNRP22-11v7
B3: aNRP2-14v9 (antibody, V domains shown)
VH: QLQLVESGGGVVQPGRSLRLSCTVSGFSLTSYGVHWVRQAPGKGLEWVGLIWSGGSTDYSPAFISRFTISEDNSKSTVYLQMNSLRAEDTAVYFCARNSYSSGYYAMDYWGQGTTVTVSS
VL: DIQLTQSPSFLSASVGDRVTITCKASQNVGHAVAWYQQKPGKAPKLLIYSASNRYTGVPSRFSGSGSGTEFTLTISSLQPEDFATYYCQQYSRYPPYTFGGGTKVEIK
B4: aNRP2-14v10 (antibody, V domains shown)
VH: B3 VH
VL: B3 VL with H31T, Y91R
B5: aNRP2-10v13 (antibody, V domains shown)
VH: EVQLVQSGAEVKKPGATVKISCKVSGFNIKDYYVHWVQQAPGKGLEWMGRIDVHDDETKYAPKFQGRVTITADTSTDTAYMELSSLRSEDTAVYYCATPIYGAREAWFAYWGQGTLVTVSS
VL: DIQMTQSPSSLSASVGDRVTITCTASSSVSSSYLHWYQQKPGKAPKLLIYRTSNLASGVPSRFSGSGSGTDFTLTISSLQPEDFATYYCHQYYRSPPTFGGGTKVEIK

Legend:
[1] = target: T1, human NRP2 variant 2 (hNRP2), untagged, …; assay: flow cytometry as described for Table E1 (Expi293-hNRP2 cells); the cells for this surrogate are not said separately
[2] = target: T1, human NRP2 variant 2 (hNRP2), untagged, …; assay: flow cytometry on Expi293-hNRP2 clonal cells
Procedure: Expi293-hNRP2 clonal cells were collected by centrifugation at 300 g for 5 minutes, and washed twice by DPBS (with calcium and magnesium, ThermoFisher Cat #14040133). Washed cells were added to a 96-well V-bottom plate (ThermoFisher Cat #1424572) at 100,000 cells/well in […] of DPBS added with Zombie Violet viability stain (Biolegend Cat #423114, diluted at 1:500). From this step on, cells were protected from light. Cells were kept at room temperature for 10 min and pelleted down at 300 g for 5 minutes at 4° C. Supernatants containing Zombie Violet were discarded, and without washing, 30 uL of antibodies diluted in the flow wash buffer (FWB, DPBS plus 2% FBS and 0.1% sodium azide to inhibit receptor internalization) were added to the cells. For anti-NRP2 antibody staining on Expi293-hNRP2 clonal cells, in-house human anti-NRP2 antibodies were tested at final concentrations of 0.006-100 nM at 4-fold dilutions. […] Binding was allowed to proceed on ice for 40-60 minutes. Cells were then pelleted at 300 g for 5 minutes at 4° C., supernatants removed, and cells washed twice by adding 150 μL of FWB and centrifuging the cells again in the same conditions. To detect a-NRP2 binding on the cell surface, Cy3-conjugated goat anti-human IgG Fc (Jackson ImmunoResearch Cat #109165098) was added to the cells at a final concentration of 3 μg/mL in 30 μL of FWB. After 30-40 minutes of incubation on ice, cells were pelleted at 300 g for 5 minutes at 4° C. and supernatants removed, and the cells were washed twice as described previously. Cells were then resuspended in FWB before acquisition on the Cytoflex. Gains were set based on staining controls. Cells were collected with typically more than 10,000 events. Cells were then analyzed on FlowJo analysis software by excluding dead cells and gating singlets. The statistical analysis was performed using GraphPad Prism. A four-parameter variable-slope curve was fitted to the data ([agonist] vs. response) using non-linear regression, and the EC₅₀ and r2 for each curve was determined.
The EC₅₀ of four anti-NRP2 antibodies directed against different domains of NRP2, were measured for binding to Expi293-hNRP2 clonal cells (see Table E1 and FIG. 3).

[3] = target: T2, cynomolgus monkey NRP2 on transfected Expi293 cells (cynomolgus monkey); assay: flow cytometry on Cyno NRP2-transfected Expi293 cells
T2 construct: whole, on cells; Plasmid bought from Origene; transient transfection; also called Cyno NRP2
Procedure: Binding of a-NRP2 to cynomolgus monkey NRP2-transfected Expi293 cells. Cynomolgus monkey (cyno) NRP2-transfected Expi293 cells were collected by centrifugation at 300 g for 5 minutes, and washed twice by DPBS (with calcium and magnesium, ThermoFisher Cat #14040133).
Washed cells were added to a 96-well V-bottom plate (ThermoFisher Cat #1424572) at 100,000 cells/well in 50 μL of DPBS added with Zombie Violet viability stain (Biolegend Cat #423114, diluted at 1:500). From this step on, cells were protected from light. Cells were kept at room temperature for 10 min and pelleted down at 300 g for 5 minutes at 4° C. Supernatants containing Zombie Violet were discarded, and without washing, 30 uL of antibodies diluted in the flow wash buffer (FWB, DPBS plus 2% FBS and 0.1% sodium azide to inhibit receptor internalization) were added to the cells. For a-NRP2 staining on Cyno NRP2-transfected Expi293 cells, in-house human anti-NRP2 antibodies were tested at final concentrations of 0.006-100 nM at 4-fold dilutions. For each test, NRP2 over-expression on the cell surface was validated by a-NRP2 staining (10 μg/mL R&D #AF567 a-NRP2) in separate wells. Binding was allowed to proceed on ice for 40-60 minutes. Cells were then pelleted at 300 g for 5 minutes at 4° C., supernatants removed, and cells washed twice by adding 150 μL of FWB and centrifuging the cells again in the same conditions. To detect a-NRP2 binding on the cell surface, Cy3-conjugated goat anti-human IgG Fc or AF647-conjugated donkey anti-goat IgG (Jackson ImmunoResearch Cat #109165098 & 705605147) was added to the cells at a final concentration of 3 μg/mL in 30 μL of FWB. After 30-40 minutes of incubation on ice, cells were pelleted at 300 g for 5 minutes at 4° C. and supernatants removed, and the cells were washed twice as described previously. […] Cells were then analyzed on FlowJo analysis software by excluding dead cells and gating singlets.
The EC₅₀ of three anti-NRP2 antibodies, each against a distinct domain of NRP2, were measured for binding to Cyno NRP2-transfected Expi293 cells (see Table E2 and FIG. 4).

[4] = target: T3, Cynomolgus NRP2 (aa23-854) with C-terminal Fc-tag (cynomolgus monkey); assay: SPR (ProteOn XPR36), antibody captured on anti-human Fab-kappa, cyno NRP2-Fc as analyte, bivalent analyte fit
T3 construct: range 23-854; sensorgrams fitted to a bivalent analyte model; also called Cynomolgus NRP2 antigen protein
Procedure: Anti-NRP2 antibody binding and affinity measurements. […] SPR experiments were conducted on a Bio-Rad ProteOn XPR36 Protein Interaction Array instrument. Biotinylated anti-human antibody (ThermoFisher Cat #7103302100) was immobilized on ProteOn NLC sensor chips. Anti-NRP2 antibodies were subsequently flowed over and captured by the anti-human antibody. Cynomolgus NRP2 antigen protein was flowed over the captured antibody at varying concentrations (150, 50, 16.67, 5.56, 1.85 nM). The sensor chip surface was regenerated between each analyte run to remove anti-NRP2 antibodies and NRP2 protein. Data was double referenced against a surface with no anti-NRP2 antibody captured (immobilized anti-human antibody only) and a buffer only blank. Affinity constants were derived by globally fitting sensograms to a bivalent analyte interaction model in the ProteOn manager software. For each anti-NRP2 antibody, data from the multiple NRP2 concentrations was fit as a single data set with dissociation rate constant (kd), association rate constant (kₐ) and Rₘₐₓ values as global parameters. The reported binding affinity is the equilibrium dissociation constant (KD) calculated from kd/kₐ. [0681] Running buffer: 50 mM HEPES, 300 mM NaCl, 5 mM CaCl₂, 0.005% Tween-20, pH 7.4 [0682] Immobilized antibody: CaptureSelect Human Fab-kappa Kinetics Biotin Conjugate, Thermo Fisher Cat #7103302100 [0683] Antigen: Cynomolgus NRP2 (aa23-854) with C-terminal Fc-tag [0684] Regeneration buffer: 10 mM glycine pH 2.0

Binder | EC50 [1] | EC50 [2] | EC50 [3] | Kd [4]
B1 | 1.58 nM |  |  | 
B2 |  | 6.3 nM | 5.7 nM | 12 nM
B3 |  | 1.2 nM | 2.8 nM | 0.017 nM
B4 |  | 47.5 nM |  | 
B5 |  | 0.65 nM |  | 

From US20210163606A1 (ATYR PHARMA, published 2021)
